T1: PDZD11, Q5EBL8
T1 sequence (Q5EBL8 42-139, limits assumed, looked up): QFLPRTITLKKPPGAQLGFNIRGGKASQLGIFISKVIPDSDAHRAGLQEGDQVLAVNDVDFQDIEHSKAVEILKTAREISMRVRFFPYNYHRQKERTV

T2: MPDZ_7, O75970
T2 sequence (O75970 1146-1253, limits assumed, looked up): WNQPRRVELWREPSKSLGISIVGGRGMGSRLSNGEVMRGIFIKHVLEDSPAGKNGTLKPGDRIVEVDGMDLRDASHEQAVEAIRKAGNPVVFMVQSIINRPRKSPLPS

T3: SHROOM4, Q9ULL8
T3 sequence (Q9ULL8 5-102, limits assumed, looked up): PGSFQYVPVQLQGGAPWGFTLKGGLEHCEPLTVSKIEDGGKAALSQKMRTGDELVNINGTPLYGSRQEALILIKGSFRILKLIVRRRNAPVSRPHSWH

T4: MPDZ_3, O75970
T4 sequence (O75970 372-473, limits assumed, looked up): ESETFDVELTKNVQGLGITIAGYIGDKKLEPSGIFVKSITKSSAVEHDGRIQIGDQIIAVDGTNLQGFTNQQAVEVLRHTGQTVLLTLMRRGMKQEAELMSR

T5: PTPN13_5, Q12923
T5 sequence (Q12923 1877-1975, limits assumed, looked up): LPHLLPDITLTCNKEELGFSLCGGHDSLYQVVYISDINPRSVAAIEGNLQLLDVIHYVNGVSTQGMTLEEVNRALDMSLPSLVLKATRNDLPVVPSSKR

T6: TJP3_1, O95049
T6 sequence (O95049 6-103, limits assumed, looked up): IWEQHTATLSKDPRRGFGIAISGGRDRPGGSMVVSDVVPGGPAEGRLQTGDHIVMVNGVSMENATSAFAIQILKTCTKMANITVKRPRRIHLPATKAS

T7: CNKSR1, Q969H4
T7 sequence (Q969H4 191-295, limits assumed, looked up): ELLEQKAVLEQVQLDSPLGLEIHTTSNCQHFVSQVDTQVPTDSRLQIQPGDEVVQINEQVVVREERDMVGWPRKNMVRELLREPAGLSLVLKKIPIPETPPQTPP

T8: PREX2_2, Q70Z35
T8 sequence (Q70Z35 672-764, limits assumed, looked up): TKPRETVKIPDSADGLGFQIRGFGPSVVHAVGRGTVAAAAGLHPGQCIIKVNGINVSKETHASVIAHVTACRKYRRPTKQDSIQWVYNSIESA

T9: PTPN13_4, Q12923
T9 sequence (Q12923 1783-1878, limits assumed, looked up): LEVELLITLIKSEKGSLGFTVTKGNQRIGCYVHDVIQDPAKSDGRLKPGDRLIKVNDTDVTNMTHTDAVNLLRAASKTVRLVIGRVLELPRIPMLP

T10: PDZRN3_2, Q9UPQ7
T10 sequence (Q9UPQ7 414-513, limits assumed, looked up): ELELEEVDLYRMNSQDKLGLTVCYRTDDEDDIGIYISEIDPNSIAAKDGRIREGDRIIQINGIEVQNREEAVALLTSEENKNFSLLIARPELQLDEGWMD

T11: MPDZ_2, O75970
T11 sequence (O75970 252-347, limits assumed, looked up): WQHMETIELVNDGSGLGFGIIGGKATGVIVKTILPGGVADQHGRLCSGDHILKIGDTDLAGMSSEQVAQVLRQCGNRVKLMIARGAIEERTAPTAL

T12: SYNPO2L, Q9H987
T12 sequence (Q9H987 1-98, limits assumed, looked up): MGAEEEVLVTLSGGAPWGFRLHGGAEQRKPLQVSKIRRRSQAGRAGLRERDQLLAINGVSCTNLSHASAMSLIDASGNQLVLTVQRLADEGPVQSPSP

T13: PDZD2_5, O15018
T13 sequence (O15018 2617-2716, limits assumed, looked up): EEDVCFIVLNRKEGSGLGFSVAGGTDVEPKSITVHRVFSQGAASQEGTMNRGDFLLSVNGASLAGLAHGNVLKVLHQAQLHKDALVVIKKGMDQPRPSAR


How the values were obtained:
Test in all cases: holdup assay
Parameters in all cases: key: below the threshold = too weak to quantify, mostly under pKd 3.1 to 4
Details in all cases: plain residues with an end cap or a label only (N-terminal biotin on a linker: ttds)
LIMK1, P53667 = biological target: LIMK1, P53667
MAGI1_3, Q96QZ7 = biological target: MAGI1_3, Q96QZ7
PDLIM4, P50479 = biological target: PDLIM4, P50479
PDZD11, Q5EBL8 = biological target: T1, PDZD11, Q5EBL8
MPDZ_7, O75970 = biological target: T2, MPDZ_7, O75970
SHROOM4, Q9ULL8 = biological target: T3, SHROOM4, Q9ULL8
PDZRN4_2, Q6ZMN7 = biological target: PDZRN4_2, Q6ZMN7
MPDZ_3, O75970 = biological target: T4, MPDZ_3, O75970
PTPN13_5, Q12923 = biological target: T5, PTPN13_5, Q12923
MAGI1_6, Q96QZ7 = biological target: MAGI1_6, Q96QZ7
TJP3_1, O95049 = biological target: T6, TJP3_1, O95049
CNKSR1, Q969H4 = biological target: T7, CNKSR1, Q969H4
PREX2_2, Q70Z35 = biological target: T8, PREX2_2, Q70Z35
PTPN13_4, Q12923 = biological target: T9, PTPN13_4, Q12923
PDZRN3_2, Q9UPQ7 = biological target: T10, PDZRN3_2, Q9UPQ7
PARD3B_3, Q8TEW8 = biological target: PARD3B_3, Q8TEW8
NHERF4_3, Q86UT5 = biological target: NHERF4_3, Q86UT5
MAGI3_4, Q5TCQ9 = biological target: MAGI3_4, Q5TCQ9
GRIP2_2, Q9C0E4 = biological target: GRIP2_2, Q9C0E4
Q9UDY2 = biological target: Q9UDY2
Q9Y3R0 = biological target: Q9Y3R0
MPDZ_2, O75970 = biological target: T11, MPDZ_2, O75970
SYNPO2L, Q9H987 = biological target: T12, SYNPO2L, Q9H987
PDZD2_5, O15018 = biological target: T13, PDZD2_5, O15018

Sequence of MAGI1_6, Q96QZ7 (Q96QZ7 1146-1238): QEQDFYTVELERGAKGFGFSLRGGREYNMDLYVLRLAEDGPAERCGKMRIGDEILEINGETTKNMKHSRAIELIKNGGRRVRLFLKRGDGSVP
Sequence of MAGI1_3, Q96QZ7 (Q96QZ7 638-725): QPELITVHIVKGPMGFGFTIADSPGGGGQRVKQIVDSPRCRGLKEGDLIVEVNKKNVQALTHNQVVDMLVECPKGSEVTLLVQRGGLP
Sequence of PARD3B_3, Q8TEW8 (Q8TEW8 490-594): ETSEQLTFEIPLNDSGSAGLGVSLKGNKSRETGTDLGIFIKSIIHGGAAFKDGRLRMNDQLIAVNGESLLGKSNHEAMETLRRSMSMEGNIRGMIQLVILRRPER
Sequence of MAGI3_4, Q5TCQ9 (Q5TCQ9 716-815): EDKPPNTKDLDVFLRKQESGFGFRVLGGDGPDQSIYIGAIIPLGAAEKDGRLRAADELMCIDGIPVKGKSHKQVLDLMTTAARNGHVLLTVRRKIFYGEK
Sequence of PDZRN4_2, Q6ZMN7 (Q6ZMN7 389-498): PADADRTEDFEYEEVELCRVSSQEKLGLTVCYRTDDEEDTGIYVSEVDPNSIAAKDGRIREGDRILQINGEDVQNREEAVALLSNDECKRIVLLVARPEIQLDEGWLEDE
Sequence of PDLIM4, P50479 (P50479 1-83): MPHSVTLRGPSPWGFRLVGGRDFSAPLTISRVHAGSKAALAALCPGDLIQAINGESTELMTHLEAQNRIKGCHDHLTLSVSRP
Sequence of LIMK1, P53667 (P53667 155-268): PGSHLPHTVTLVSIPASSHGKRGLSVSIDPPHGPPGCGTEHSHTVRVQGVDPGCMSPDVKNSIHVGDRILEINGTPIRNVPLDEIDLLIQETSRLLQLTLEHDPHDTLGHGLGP
Sequence of GRIP2_2, Q9C0E4 (Q9C0E4 137-245): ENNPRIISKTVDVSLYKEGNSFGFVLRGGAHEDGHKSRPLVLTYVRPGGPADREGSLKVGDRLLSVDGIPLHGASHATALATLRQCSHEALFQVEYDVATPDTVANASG
Sequence of NHERF4_3, Q86UT5 (Q86UT5 325-412): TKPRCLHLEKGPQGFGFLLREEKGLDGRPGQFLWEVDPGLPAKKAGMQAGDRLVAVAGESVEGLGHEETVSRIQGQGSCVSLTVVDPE

Binder | pKd (LIMK1, P53667) | pKd (MAGI1_3, Q96QZ7) | pKd (PDLIM4, P50479) | pKd (PDZD11, Q5EBL8) | pKd (MPDZ_7, O75970) | pKd (SHROOM4, Q9ULL8) | pKd (PDZRN4_2, Q6ZMN7) | pKd (MPDZ_3, O75970) | pKd (PTPN13_5, Q12923) | pKd (MAGI1_6, Q96QZ7) | pKd (TJP3_1, O95049) | pKd (CNKSR1, Q969H4) | pKd (PREX2_2, Q70Z35) | pKd (PTPN13_4, Q12923) | pKd (PDZRN3_2, Q9UPQ7) | pKd (PARD3B_3, Q8TEW8) | pKd (NHERF4_3, Q86UT5) | pKd (MAGI3_4, Q5TCQ9) | pKd (GRIP2_2, Q9C0E4) | pKd (Q9UDY2) | also measured
RHTTSTETAV [HPV30-E6, P36809] | below the threshold | 4.72 | below the threshold | below the threshold | below the threshold | 4.73 | 4.48 | below the threshold | below the threshold | 4.73 | below the threshold | below the threshold | below the threshold | below the threshold | below the threshold | below the threshold | below the threshold | below the threshold | below the threshold | below the threshold | pKd (Q9Y3R0): below the threshold; pKd (MPDZ_2, O75970): below the threshold; pKd (SYNPO2L, Q9H987): below the threshold; pKd (PDZD2_5, O15018): below the threshold
RLPKIKETTV [FRMPD4, Q14CM0] | 4.48 | 4.82 | below the threshold | below the threshold | below the threshold | below the threshold | 4.43 | below the threshold | below the threshold | 4.57 | below the threshold | below the threshold | 4.25 | below the threshold | below the threshold | below the threshold | below the threshold | below the threshold | below the threshold | below the threshold | pKd (Q9Y3R0): below the threshold; pKd (MPDZ_2, O75970): below the threshold; pKd (SYNPO2L, Q9H987): below the threshold; pKd (PDZD2_5, O15018): below the threshold
SSLQSLETSV [ATP2B4, P23634] | below the threshold | 4.44 | below the threshold | below the threshold | below the threshold | 4.68 | 4.24 | below the threshold | below the threshold | 4.49 | below the threshold | below the threshold | below the threshold | below the threshold | below the threshold | below the threshold | below the threshold | below the threshold | below the threshold | below the threshold | pKd (Q9Y3R0): below the threshold; pKd (MPDZ_2, O75970): below the threshold; pKd (SYNPO2L, Q9H987): below the threshold; pKd (PDZD2_5, O15018): below the threshold

From publication PMC9482650, “Quantitative fragmentomics allow affinity mapping of interactomes” (Nature Communications, 2022)
